Patent publication US20220143213

B1: recombinant IdeZ (NEB P0770S or Genscript) (protein)
chain: MKTIAYPNKPHSLSAGLLTAIAIFSLASSNITYADDYQRNATEAYAKEVPHQITSVWSKGVTPLTPEQFRYNNEDVIHAPYLAHQGWYDITKAFDGKDNLLCGAATAGNMLHWWFDQNKTEIEAYLSKHPEKQKIIFNNQELFDLKAAIDTKDSQTNSQLFNYFRDKAFPNLSARQLGVMPDLVLDMFINGYYLNVFKTQSTDVNRPYQDKDKRGGIFDAVFTRGDQTTLLTARHDLKNKGLNDISTIIKQELTEGRALALSHTYANVSISHVINLWGADFNAEGNLEAIYVTDSDANASIGMKKYFVGINAHGHVAISAKKIEGENIGAQVLGLFTLSSGKDIWQKLS
B2: recombinant GST-IdeZ (N-terminally GST tagged IdeZ fusion) (protein)
chain: B1 chain

Key:
[1] = target: IgG from dog serum
[2] = target: IgG present within human serum
[3] = target: IgG present within mouse serum
[4] = target: IgG present within primate serum
[5] = target: human intravenous immunoglobulin (IVIG)

Protein | IgG cleavage, SDS-PAGE [1] | IgG cleavage, reducing SDS-PAGE with Coomassie stain [2] | IgG cleavage, reducing SDS-PAGE with Coomassie stain (Donors 1-5) [2] | IgG cleavage, reducing SDS-PAGE with Coomassie stain [3] | IgG cleavage, reducing SDS-PAGE with Coomassie stain [4] | IVIG cleavage in vitro, reducing SDS-PAGE with Coomassie stain [5] | IgG cleavage, SDS-PAGE with Coomassie stain (heavy chain cleavage product ~31 kDa) [2] | IgG cleavage, SDS-PAGE with Coomassie stain (heavy chain cleavage product ~31 kDa) [4]
B1 | IdeZ can cleave IgG from dog serum | IgG present within serum was cleaved by IdeZ | IdeZ also cleaved IgG in serum samples from additional human patients (Donors 1-5) | IgG present within serum was cleaved by IdeZ | IgG present within serum was cleaved by IdeZ | IdeZ cleaved human IVIG in vitro |  | 
B2 |  |  |  |  |  | IdeZ cleaved human IVIG in vitro | GST-IdeZ cleaved IgG present within human and primate serum | GST-IdeZ cleaved IgG present within human and primate serum
